Laboratory results as given in patent US20220332795A1 (ARO BIOTHERAPEUTICS, published 2022).
Substitutions are numbered along the chain they refer to.

B1: SEQ ID NO 115 (designed binder)
chain: MLPAPKNLVVSRVTEDSARLSWTAPDAAFDSFYIAYAEPRPDGEAIELHVPGSERSYDLTGLKPGTEYSVLIHGVKGGLLSSPLFTT
notes: FN3 domain
B2: SEQ ID NO 111 (designed binder)
chain: MLPAPKNLVVSRVTEDSARLSWTAPDAAFDSFFIGYLEPQPPGEAIDLGVPGSERSYDLTGLKPGTEYNVTIQGVKGGFPSMPLDPLEAYFTT
notes: FN3 domain
B3: SEQ ID NO 136 (designed binder)
chain: MLPAPKNLVVSRVTEDSARLSWTAPDAAFDSFFIGYLEPQPPGEAIWLHVPGSERSYDLTGLKPGTEYNVTIQGVKGGFPSIPLIAIFTT
notes: FN3 domain
B4: SEQ ID NO 173 (designed binder)
chain: B3 chain with F33H, G35V, L37H, Q40R, P42S, W47H, H49Q, I82Y, I85S, I87F
notes: FN3 domain
B5: SEQ ID NO 140 (designed binder)
chain: B3 chain with W47Q, H49E, I82M, I85S
notes: FN3 domain
B6: SEQ ID NO 139 (designed binder)
chain: B3 chain with W47Q, H49G, I82H, I85N, I87N
notes: FN3 domain
B7: SEQ ID NO 163 (designed binder)
chain: B3 chain with W47Y, H49E, I82F, I85K, I87A
notes: FN3 domain
B8: SEQ ID NO 142 (designed binder)
chain: B3 chain with W47G, H49Q, I82H, I85K, I87Q
notes: FN3 domain
B9: SEQ ID NO 151 (designed binder)
chain: B3 chain with W47Q, H49W, I82R, I85Q, I87H
notes: FN3 domain
B10: SEQ ID NO 191 (designed binder)
chain: B3 chain with W47I, H49A, I82L, I85V, I87S
notes: FN3 domain
B11: SEQ ID NO 162 (designed binder)
chain: MLPAPKNLVVSRVTEDSARLSWTAPDAAFDSFYIAYAEPRPDGEAIKLEVPGSERSYDLTGLKPGTEYSVLIHGVKGGLLSSPLAIFTT
notes: FN3 domain
B12: SEQ ID NO 192 (designed binder)
chain: MLPAPKNLVVSRVTEDSARLSWTAPDAAFDSFDIGYTEYGGYGEAIYLSVPGSERSYDLTGLKPGTEYWVLIQGVKGGGSSVPLSAIFTT
notes: FN3 domain
B13: SEQ ID NO 184 (designed binder)
chain: MLPAPKNLVVSRVTEDSARLSWTAPDAAFDSFFIGYLEPQPPGEAIDLAVPGSERSYDLTGLKPGTEYSVLIHGVKGGLLSSPLSFTT
notes: FN3 domain
B14: SEQ ID NO 187 (designed binder)
chain: B13 chain with D47S, A49L, G52D, S69N, L71T, H73Q, L79F, L80P, S82M, S85K
notes: FN3 domain
B15: SEQ ID NO 202 (designed binder)
chain: MLPAPKNLVVSRVTEDSARLSWTAPDAAFDSFDIGYTEYGGYGEAILHVPGSERSYDLTGLKPGTEYWVLIQGVKGGGSSVPLSAIFTT
notes: FN3 domain
B16: SEQ ID NO 172 (designed binder)
chain: MLPAPKNLVVSRVTEDSARLSWTAPDAAFDSFFIGYLEPQPPGEAIVLTVPGSERSYDLTGLKPGTEYNVTIQGVKGGFPSMPLASFTT
notes: FN3 domain
B17: SEQ ID NO 109 (designed binder)
chain: MLPAPKNLVVSRVTEDSARLSWTAPDAAFDSFHISYEEDYTFGEAIYLRVPGSERSYDLTGLKPGTEYRVVIGGVKGGWFSEPLLAAFTT
notes: FN3 domain
B18: SEQ ID NO 130 (designed binder)
chain: MLPAPKNLVVSRVTEDSARLSWTAPDAAFDSFVIEYFEWTLNGEAIVLTVPGSERSYDLTGLKPGTEYSVQIYGVKGGCLSRPLSAIFTT
notes: FN3 domain
B19: SEQ ID NO 37 (designed binder, not shown: small tags and cut ends)
chain: MLPAPKNLVVSRVTEDSARLSWTTPDAAFDSFPIYYWEVTITGEAIYLSVPGSERSYDLTGLKPGTEYPVDIPGVKGGAASPPLSAIFTT
notes: FN3 domain, hit of the apical domain panning
B20: SEQ ID NO 38 (designed binder, not shown: small tags and cut ends)
chain: MLPAPKNLVVSRVTEDSARLSWTAPDAAFDSFPILYLEHTVRSEAIVLTVPGSERSYDLTDLKPGTEYCVPIDGVKGGLRSRPLSAIFTT
notes: as for B19
B21: SEQ ID NO 4 (designed binder, not shown: small tags and cut ends)
chain: MLPAPKNLVVSEVTEDSARLSWQGVARAFDSFLITYRDQIFAGEVIVLTVPGSERSYDLTGLKPGTEYPVWIQGVKGGSPSAPLSAESTT
notes: as for B19
B22: SEQ ID NO 84 (designed binder, not shown: small tags and cut ends)
chain: MLPAPKNLVVSRVTEDSARLSWQGVARAFDSFSILYLELTPKGEAIVLTVPGSERSYDLTGLKPGTEYPVWIQGVKGGSPSAPLSAEFTT
notes: as for B19
B23: SEQ ID NO 94 (designed binder, not shown: small tags and cut ends)
chain: B21 chain with D38E, E87I, S88F
notes: as for B19
B24: SEQ ID NO 53 (designed binder, not shown: small tags and cut ends)
chain: B21 chain with K6E, D38E
notes: as for B19
B25: SEQ ID NO 102 (designed binder, not shown: small tags and cut ends)
chain: B21 chain with E12R, D38E, S88F
notes: as for B19
B26: SEQ ID NO 36 (designed binder, not shown: small tags and cut ends)
chain: B21 chain with D38E, L48P, W71P, Q73A, S79G, E87I, S88F
notes: as for B19
B27: SEQ ID NO 5 (designed binder, not shown: small tags and cut ends)
chain: B21 chain with D38E, P69W, W71Y, Q73W, S79K, A82F, S85R, E87G, S88F
notes: as for B19
B28: SEQ ID NO 81 (designed binder, not shown: small tags and cut ends)
chain: B22 chain with S33L, L35T, L37V, T40R, P41H, K42L
notes: as for B19
B29: SEQ ID NO 28 (designed binder, not shown: small tags and cut ends)
chain: B21 chain with A26V, D38E, S88F
notes: as for B19
B30: SEQ ID NO 73 (designed binder, not shown: small tags and cut ends)
chain: B21 chain with D38E
notes: as for B19
B31: SEQ ID NO 7 (designed binder, not shown: small tags and cut ends)
chain: B21 chain with E12D, D38E, S88F
notes: as for B19
B32: SEQ ID NO 32 (designed binder, not shown: small tags and cut ends)
chain: B21 chain with E12R, D38E, P69G, W71T, Q73A, S79W, P80R, A82K, S85N
notes: as for B19
B33: SEQ ID NO 15 (designed binder, not shown: small tags and cut ends)
chain: B21 chain with E12R, D38E, Y68C, S88F
notes: as for B19
B34: SEQ ID NO 41 (designed binder, not shown: small tags and cut ends)
chain: B21 chain with E12R, D38E, S79H, P80L, A82D, E87I, S88V
notes: as for B19
B35: SEQ ID NO 70 (designed binder, not shown: small tags and cut ends)
chain: B21 chain with E12R, D38E, S79D, P80L, A82N, E87I, S88F
notes: as for B19
B36: SEQ ID NO 39 (designed binder, not shown: small tags and cut ends)
chain: MLPAPKNLVVSRVTEDSARLSWTAPDAAFDSFPIPYTEPPDPGEAIVLTVPGSERSYDLTGLKPGTEYLVTILGVKGGSMSVPLSAIFTT
notes: as for B19
B37: SEQ ID NO 1 (designed binder, not shown: small tags and cut ends)
chain: MLPAPKNLVVSRVTEDSARLSWTAPDAAFDSFPITYIEAVVLGEAIVLTVPGSERSYDLTGLKPGTEYPVGISGVKGGHNSMPLSAIFTT
notes: as for B19

biological target: T1, recombinant biotinylated human CD71 extracellular domain (human, UniProt P02786 89-760, biotinylated); experiment: solution ELISA
T1 construct: extracellular domain; also called hCD71; huCD71 ECD
T1 sequence (P02786 other isoform, or with tags, fused parts or gaps): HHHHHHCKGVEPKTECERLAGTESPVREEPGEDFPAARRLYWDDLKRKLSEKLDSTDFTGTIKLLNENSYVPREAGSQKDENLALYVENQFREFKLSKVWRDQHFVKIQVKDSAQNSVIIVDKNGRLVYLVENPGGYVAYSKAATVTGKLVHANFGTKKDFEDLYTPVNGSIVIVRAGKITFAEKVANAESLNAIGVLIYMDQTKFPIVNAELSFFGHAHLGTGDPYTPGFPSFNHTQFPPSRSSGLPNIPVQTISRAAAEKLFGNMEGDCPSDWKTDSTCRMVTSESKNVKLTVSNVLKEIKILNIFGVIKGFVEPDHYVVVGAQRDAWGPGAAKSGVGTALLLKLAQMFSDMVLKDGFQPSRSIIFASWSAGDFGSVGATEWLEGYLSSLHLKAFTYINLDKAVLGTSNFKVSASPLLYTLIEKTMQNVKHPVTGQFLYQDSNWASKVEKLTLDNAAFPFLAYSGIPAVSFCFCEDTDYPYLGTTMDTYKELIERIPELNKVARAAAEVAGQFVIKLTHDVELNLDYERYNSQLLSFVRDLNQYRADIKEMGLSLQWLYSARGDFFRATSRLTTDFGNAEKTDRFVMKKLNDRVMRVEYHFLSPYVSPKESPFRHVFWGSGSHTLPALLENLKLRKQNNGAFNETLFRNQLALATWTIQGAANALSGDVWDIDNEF

Binder | hCD71, RLU
B1 | 3.47e+06 RLU
B2 | 2.41e+06 RLU
B3 | 3.69e+06 RLU
B4 | 1.49e+06 RLU
B5 | 603000 RLU
B6 | 1.13e+06 RLU
B7 | 313000 RLU
B8 | 2.97e+06 RLU
B9 | 1.23e+06 RLU
B10 | 3.86e+06 RLU
B11 | 638000 RLU
B12 | 1.77e+06 RLU
B13 | 4.04e+06 RLU
B14 | 796000 RLU
B15 | 1.51e+06 RLU
B16 | 377000 RLU
B17 | 5.33e+06 RLU
B18 | 1.61e+06 RLU

biological target: T2, CD71 apical domain (UniProt P02786 189-383, limits assumed); experiment: solution ELISA
T2 construct: domain: Apical domain
T2 sequence (P02786 189-383 limits assumed): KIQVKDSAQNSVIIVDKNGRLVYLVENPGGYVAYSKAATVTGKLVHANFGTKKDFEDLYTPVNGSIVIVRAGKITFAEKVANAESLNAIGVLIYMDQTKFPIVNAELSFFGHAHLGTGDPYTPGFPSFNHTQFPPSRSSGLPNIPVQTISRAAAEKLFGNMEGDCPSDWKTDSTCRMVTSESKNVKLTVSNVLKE

Binder | Apical domain, RLU
B1 | 150000 RLU
B2 | 113000 RLU
B3 | 4.77e+06 RLU
B4 | 1.8e+06 RLU
B5 | 317000 RLU
B6 | 1.86e+06 RLU
B7 | 74500 RLU
B8 | 4.36e+06 RLU
B9 | 4.04e+06 RLU
B10 | 4.66e+06 RLU
B11 | 93100 RLU
B12 | 7.58e+06 RLU
B13 | 120000 RLU
B14 | 77900 RLU
B15 | 5.47e+06 RLU
B16 | 353000 RLU
B17 | 28300 RLU
B18 | 106000 RLU

biological target: T3, recombinant biotinylated CD71 extracellular domain (Sino Biologics) with an N-terminal 6His tag (human, UniProt P02786 89-760, biotinylated (site not stated)); experiment: primary solution ELISA screen
T3 construct: extracellular domain; also called hCD71; huCD71 ECD
T3 sequence (P02786 other isoform, or with tags, fused parts or gaps): as the sequence (P02786 other isoform, or with tags, fused parts or gaps) above

Binder | RLU
B19 | 2.95e+06 RLU
B20 | 518000 RLU
B21 | 2.1e+06 RLU
B22 | 3.53e+06 RLU
B23 | 1.02e+06 RLU
B24 | 1.27e+06 RLU
B25 | 444000 RLU
B26 | 288000 RLU
B27 | 1.73e+06 RLU
B28 | 864000 RLU
B29 | 383000 RLU
B30 | 1.47e+06 RLU
B31 | 761000 RLU
B32 | 342000 RLU
B33 | 512000 RLU
B34 | 1.37e+06 RLU
B35 | 991000 RLU
B36 | 1.48e+06 RLU
B37 | 1.51e+06 RLU

biological target: T1, recombinant biotinylated human CD71 …; experiment: solution ELISA, signal ratio to HSA

Binder | hCD71:HSA
B1 | 20.1
B2 | 17.9
B3 | 155
B4 | 66.5
B5 | 27.9
B6 | 73.8
B7 | 11.5
B8 | 123
B9 | 45.2
B10 | 119
B11 | 17
B12 | 79.9
B13 | 27.9
B14 | 10.9
B15 | 58.6
B16 | 13.4
B17 | 138
B18 | 13.2

biological target: T2, CD71 apical domain; experiment: solution ELISA, signal ratio to HSA

Binder | apical domain:HSA
B1 | 0.9
B2 | 0.8
B3 | 201
B4 | 80.4
B5 | 14.6
B6 | 121
B7 | 2.7
B8 | 181
B9 | 149
B10 | 143
B11 | 2.5
B12 | 342
B13 | 0.8
B14 | 1.1
B15 | 212
B16 | 12.5
B17 | 0.7
B18 | 0.9

biological target: T3, recombinant biotinylated CD71 …; experiment: primary solution ELISA screen, signal on hCD71 over HSA

Binder | hCD71:HSA
B19 | 103
B20 | 63
B21 | 12
B22 | 28
B23 | 12
B24 | 40
B25 | 11
B26 | 60
B27 | 39
B28 | 88
B29 | 28
B30 | 73
B31 | 29
B32 | 75
B33 | 35
B34 | 12
B35 | 10
B36 | 29
B37 | 96
